Legend:
[1] = biological target: T1, soluble FAP (human, UniProt Q12884 26-760, limits assumed); test: cell-based or functional assay
T1 sequence: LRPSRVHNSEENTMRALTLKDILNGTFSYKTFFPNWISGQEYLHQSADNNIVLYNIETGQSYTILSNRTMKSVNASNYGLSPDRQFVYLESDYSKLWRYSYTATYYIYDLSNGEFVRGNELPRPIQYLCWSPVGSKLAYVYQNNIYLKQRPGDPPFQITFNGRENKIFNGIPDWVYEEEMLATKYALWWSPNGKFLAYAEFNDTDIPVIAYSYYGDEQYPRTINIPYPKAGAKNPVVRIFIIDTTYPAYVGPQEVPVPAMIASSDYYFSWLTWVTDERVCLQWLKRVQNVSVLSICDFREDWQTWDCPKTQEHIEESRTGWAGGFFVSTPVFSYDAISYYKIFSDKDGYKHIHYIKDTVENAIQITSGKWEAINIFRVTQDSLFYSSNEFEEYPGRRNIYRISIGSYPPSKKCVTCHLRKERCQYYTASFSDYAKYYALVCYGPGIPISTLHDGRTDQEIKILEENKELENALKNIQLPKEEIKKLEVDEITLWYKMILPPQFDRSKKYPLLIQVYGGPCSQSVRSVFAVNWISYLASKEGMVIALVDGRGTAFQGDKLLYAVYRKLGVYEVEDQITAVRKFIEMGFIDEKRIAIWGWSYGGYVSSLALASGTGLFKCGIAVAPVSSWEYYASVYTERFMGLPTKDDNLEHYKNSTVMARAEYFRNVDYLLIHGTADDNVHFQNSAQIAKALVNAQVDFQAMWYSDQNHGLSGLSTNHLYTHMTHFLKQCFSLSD

[2] = biological target: T2, human FAP protein (human, UniProt Q12884 26-760); test: SPR
T2 sequence: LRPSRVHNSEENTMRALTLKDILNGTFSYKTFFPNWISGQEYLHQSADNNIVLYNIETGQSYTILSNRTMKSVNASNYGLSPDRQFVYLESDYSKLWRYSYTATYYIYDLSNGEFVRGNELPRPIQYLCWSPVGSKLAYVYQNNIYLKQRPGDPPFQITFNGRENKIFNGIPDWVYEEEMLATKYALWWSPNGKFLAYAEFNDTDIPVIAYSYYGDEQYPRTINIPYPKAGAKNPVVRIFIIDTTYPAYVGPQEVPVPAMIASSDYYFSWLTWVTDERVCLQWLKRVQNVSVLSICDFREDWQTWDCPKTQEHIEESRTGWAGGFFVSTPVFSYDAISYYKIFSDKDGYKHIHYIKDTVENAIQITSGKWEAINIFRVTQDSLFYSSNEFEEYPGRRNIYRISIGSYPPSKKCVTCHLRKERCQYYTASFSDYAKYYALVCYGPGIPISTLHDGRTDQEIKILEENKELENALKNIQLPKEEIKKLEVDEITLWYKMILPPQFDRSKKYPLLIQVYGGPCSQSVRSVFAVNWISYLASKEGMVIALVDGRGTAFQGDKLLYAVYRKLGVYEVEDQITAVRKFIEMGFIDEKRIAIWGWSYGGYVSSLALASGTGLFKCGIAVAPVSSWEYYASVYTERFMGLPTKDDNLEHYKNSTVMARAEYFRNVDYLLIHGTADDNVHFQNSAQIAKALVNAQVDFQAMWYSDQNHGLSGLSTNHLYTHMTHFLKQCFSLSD
Description: (§1) CD40.9H3×FAP.LP62 and an analog of RO7300490 (see SEQ ID NOs: 39-42) binding to human and cynomolgus (cyno) CD40 and FAP was evaluated by surface plasmon resonance (SPR) using human and cyno CD40 and FAP proteins. […] The rates of association and dissociation of CD40.9H3×FAP.LP62 and the analog of RO7300490 to human CD40 and FAP are summarized in Table 2.

[3] = biological target: T3, human CD40 protein (human, UniProt P25942 21-193); test: SPR
T3 construct: Protein used in SPR
T3 sequence (P25942 21-193 limits assumed): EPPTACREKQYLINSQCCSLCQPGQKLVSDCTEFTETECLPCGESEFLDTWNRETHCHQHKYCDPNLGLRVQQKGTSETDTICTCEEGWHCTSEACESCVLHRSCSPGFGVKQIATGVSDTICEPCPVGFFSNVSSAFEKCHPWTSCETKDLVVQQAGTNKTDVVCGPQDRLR
Description: as §1

[4] = biological target: T1, soluble FAP; test: cell-based or functional assay; remark: listed apart in the source
[5] = biological target: T4, human FAP on cells (human, UniProt Q12884 1-760); test: cell-based or functional assay
T4 sequence: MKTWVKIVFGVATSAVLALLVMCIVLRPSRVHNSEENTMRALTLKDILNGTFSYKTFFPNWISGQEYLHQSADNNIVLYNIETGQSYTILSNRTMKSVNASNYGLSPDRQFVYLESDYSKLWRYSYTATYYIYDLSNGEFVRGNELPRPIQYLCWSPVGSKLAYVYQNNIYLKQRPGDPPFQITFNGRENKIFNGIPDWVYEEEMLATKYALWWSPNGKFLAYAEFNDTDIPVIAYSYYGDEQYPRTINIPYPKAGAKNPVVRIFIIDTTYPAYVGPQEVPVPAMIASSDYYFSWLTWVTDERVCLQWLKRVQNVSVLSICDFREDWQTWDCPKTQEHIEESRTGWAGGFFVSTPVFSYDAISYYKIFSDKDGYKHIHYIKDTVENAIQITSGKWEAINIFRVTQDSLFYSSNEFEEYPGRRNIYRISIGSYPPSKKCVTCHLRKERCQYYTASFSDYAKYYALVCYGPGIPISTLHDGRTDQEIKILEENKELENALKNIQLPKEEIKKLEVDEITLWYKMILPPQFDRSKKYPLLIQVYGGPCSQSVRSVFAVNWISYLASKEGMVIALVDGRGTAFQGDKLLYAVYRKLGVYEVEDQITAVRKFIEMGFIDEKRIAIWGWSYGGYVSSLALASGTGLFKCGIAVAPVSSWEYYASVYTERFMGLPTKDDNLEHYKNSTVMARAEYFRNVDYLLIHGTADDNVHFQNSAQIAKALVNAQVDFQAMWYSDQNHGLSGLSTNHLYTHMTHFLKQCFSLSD

[6] = biological target: T5, FcγRI (CD64) (UniProt P12314 16-288, limits assumed); test: SPR, Biacore S200, antibody captured on Protein A chip, FcγR as analyte
T5 construct: also called FcγR1 (CD64); FcγR1
T5 sequence (P12314 16-288 limits assumed): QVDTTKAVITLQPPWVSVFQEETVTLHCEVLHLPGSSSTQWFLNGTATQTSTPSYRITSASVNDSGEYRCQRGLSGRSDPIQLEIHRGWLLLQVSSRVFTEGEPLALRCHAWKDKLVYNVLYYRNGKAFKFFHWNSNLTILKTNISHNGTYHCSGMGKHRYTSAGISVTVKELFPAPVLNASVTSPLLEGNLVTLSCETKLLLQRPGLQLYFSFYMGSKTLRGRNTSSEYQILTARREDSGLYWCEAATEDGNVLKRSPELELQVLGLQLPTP
Description: Binding of CD40.9H3×FAP.LP62 and the analog of RO7300490 to various Fc gamma receptors (FcγR1 (CD64), FcγRIIIA (CD16a), FcγRIIIB (CD16b), FcγRIIA (CD32a), FcγRIIB (CD32b)) was determined in an analyte/capture assay in vitro. Briefly, an SPR assay was performed using a Biacore S200 with a Biacore Series S Protein A chip (Cytiva). All antibodies were prepared at 4.0 μg/ml in 1×HBS-EP+ running buffer (Cytiva) and captured onto flow cells 2, 3, and 4 through a 60 second contact time at 10 μl/min. An analyte series of the FcγRs (BMS In-House Produced) were prepared at 10,000 nM in 1×HBS-EP+ with eight, three-fold dilutions. Kinetic measurements were conducted with a 120 second association followed by a 120 second dissociation at 30 μl/min. Surface regeneration was preformed by 60 second contact time of 50 mM Glycine pH 1.5 solution (Cytiva) at 30 μl/min. Data was processed in Biacore Insight Evaluation Version 5 (Cytiva). Sensorgrams were double referenced and globally fit to a 1:1 Langmuir model were applicable. Where 1:1 model was not sufficient to describe the interaction (fast-on and fast-off rates), steady state equilibrium fitting was used to determine the equilibrium constant.

fold reduction in potency of IL12p40 secretion with 120 ng/mL soluble FAP [1]: 14.2 fold
fold reduction in potency of IL12p40 secretion with 480 ng/mL soluble FAP [1]: 70.9 fold
Kd [2]: 0.265 nM
koff [2]: 4.83e-05 s⁻¹
kon [2]: 182000 M⁻¹ s⁻¹
Kd [3]: 4.9 nM
koff [3]: 0.00555 s⁻¹
kon [3]: 1.13e+06 M⁻¹ s⁻¹
IL12p40 release, human DC + HFF1 co-culture, EC50, soluble FAP 120 ng/mL [4]: 1.14 nM
IL12p40 release, human DC + HFF1 co-culture, EC50, soluble FAP 480 ng/mL [4]: 516 nM
IL12p40 release, human DC + HFF1 co-culture, EC50, soluble FAP 0 ng/mL [5]: 0.09 nM
Kd [6]: 2550 nM
B1: analog of RO7300490 (bispecific antibody, human IgG1, kappa, L234A L235A)
heavy 1: not shown
heavy 2: QVQLVQSGAEVKKPGASVKVSCKASGYSFTGYYIHWVRQAPGQSLEWMGRVIPNAGGTSYNQKFKGRVTLTVDKSISTAYMELSRLRSDDTAVYYCAREGIYWWGQGTTVTVSSASTKGPSVFPLAPSSKSTSGGTAALGCLVEDYFPEPVTVSWNSGALTSGVHTFPAVLQSSGLYSLSSVVTVPSSSLGTQTYICNVNHKPSNTKVDEKVEPKSCDKTHTCPPCPAPEAAGGPSVFLFPPKPKDTLMISRTPEVTCVVVDVSHEDPEVKFNWYVDGVEVHNAKTKPREEQYNSTYRVVSVLTVLHQDWLNGKEYKCKVSNKALGAPIEKTISKAKGQPREPQVCTLPPSRDELTKNQVSLSCAVKGFYPSDIAVEWESNGQPENNYKTTPPVLDSDGSFFLVSKLTVDKSRWQQGNVFSCSVMHEALHNHYTQKSLSLSPG
light 1: DIVMTQTPLSLSVTPGQPASISCRSSQSLVHSNGNTFLHWYLQKPGQSPQLLIYTVSNRFSGVPDRFSGSGSGTDFTLKISRVEAEDVGVYFCSQTTHVPWTFGGGTKVEIKRTVAAPSVFIFPPSDRKLKSGTASVVCLLNNFYPREAKVQWKVDNALQSGNSQESVTEQDSKDSTYSLSSTLTLSKADYEKHKVYACEVTHQGLSSPVTKSFNRGEC
light 2: QVQLVQSGAEVKKPGASVKVSCKASGYTLTDYNMDWVRQAPGQGLEWIGDIYPNTGGTIYNQKFKGRVTMTIDTSTSTVYMELSSLRSEDTAVYYCTRFRGIHYAMDYWGQGTTVTVSSASVAAPSVFIFPPSDEQLKSGTASVVCLLNNFYPREAKVQWKVDNALQSGNSQESVTEQDSKDSTYSLSSTLTLSKADYEKHKVYACEVTHQGLSSPVTKSFNRGEC
notes: Human IgG1 Fc with L234A, L235A, P329G; also called RO7300490 analog

— patent US20250376536A1 (Bristol-Myers Squibb, published 2025)
